Assay results: publication PMC3641820

Biological target: Recombinant Borrelia burgdorferi HtrA (HtrABb, BB0104) with intact N-terminal His-tag (Borrelia burgdorferi strain B31A3)
Test: SEC

Substance “Recombinant Borrelia burgdorferi HtrA (HtrABb, BB0104) with intact N-terminal His-tag (enzyme)” has a stoichiometry N of 3.
